System: MS2 coat protein
Experiment: apparent KD of MS2 coat protein; designed switch direction (-1 OFF switch, 1 ON switch): -1; higher = weaker reporter binding
Method in brief: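 Designed RNA switches were transcribed on Illumina chips by stalled E. coli RNA polymerase and titrated with SNAP-549-labelled MS2 coat protein from 0.7 or 1.5 nM, doubling to 3 µM. Step length ran from 0.8–1.5 h at the lowest concentration to 10–20 min at the highest. The apparent KD is the median over clusters for each design, from curve-fitted normalised cluster fluorescence.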

[1] = input ligand: microRNA oligo, concentration not stated
[2] = Eterna round: R95, input ligand: microRNA oligo, concentration not stated
[3] = Eterna round: R95, input ligand: FMN 200 uM
[4] = Eterna round: R95, input ligand: none

Sequence	apparent KD of MS2 coat protein (input ligand: FMN 200 uM) [nM]	apparent KD of MS2 coat protein [1] [nM]	apparent KD of MS2 coat protein (input ligand: none) [nM]	apparent KD of MS2 coat protein [2] [nM]	apparent KD of MS2 coat protein [3] [nM]	apparent KD of MS2 coat protein [4] [nM]
CCAUGGGAGCGAGGAUAUAGACCAUGGGAAGAGCUAGAAGGCGCUGACAUGAGGAUCACCCAUGUGUUCAUGAGGAGGUGGACA (Eterna round: R96, puzzle: Exclusion NG 1)	215	88.7	113	–	–	–
CCAUGUCCAGAGGAUAUGUAGCGGAUAAACGCAACAGAAGGCUGGACAUGAGGAUCACCCAUGUGCGCCUUCCA [Letion] (Eterna round: R97, puzzle: Exclusion 6)	35.7	–	106	–	–	–
CCCACAAGCUUUUUGCUCGACAUGAGGAUCACCCAUGUUGAAUGGGUUAGAUGUGUGUGAAACACACACAUCUACCU [-32.5, -55.3 kcal, A 27%] (Eterna round: R97, puzzle: Sensor, turn-off variant 1)	20.3	–	18.6	–	–	–
CCCACAAGCUUUUUGCUCGACAUGAGGAUCACCCAUGUUGAAUGGGUUAUGUGUGUGUGAUACAUAUAUAUGGUCCU [-25.6, -50.5 kcal, A 23%] (Eterna round: R97, puzzle: Sensor, turn-off variant 1)	201	–	207	–	–	–
CCCAGAUAGGAAGGAUAUUGUACAUGAGGAUCACCCAUGUAAUAAAUGAGGAUCACGGAUGUAGACAAGAAGGUCCGGAUAGGC [Ostracism 7 - Jieux - Exclusion NG 2] (Eterna round: R96, puzzle: Exclusion NG 2)	108	42.5	50.2	–	–	–
CCCAGUUAGUCAGGAUAUCUUACAUGAGGAUCACCCAUGUAAUAAAUGAGGAUUUCGGGUGUCUAAGAGAAGGGACGGAUAGGC [Ostracism 27 - Jieux - Exclusion NG 2] (Eterna round: R96, puzzle: Exclusion NG 2)	22.3	9.5	19.4	–	–	–
CCCGAGCUAGGAUAUGCACAAGGUAUCGAUCCACAACACACACAUGAGGAUCACCCAUGUAGAAGGAGCAUCGU [Eternabot (L2) Solution 27] (Eterna round: R97, puzzle: Exclusion 2)	165	–	77.9	–	–	–
CCCGCAGGUUUUUUGCUCGACAUGAGGAUCACCCAUGUUGCGUGGGUUGUGUGUGUGUGGUGCAUAUAUAUGGUCCU [-25.4, -48.9 kcal, A 14%] (Eterna round: R97, puzzle: Sensor, turn-off variant 1)	300	–	350	–	–	–
CCCGGGUCUGCAGGAUAUUCGAAAGCAGGUCAAAGGUCACAUGAGGAUCACCCAUGUAGUUUAACGAAGAAGGGUGUCGCCCGU [Eternabot solution 38] (Eterna round: R96, puzzle: Exclusion NG 2)	168	76.7	162	–	–	–
CCCGUGUGAGGAUAUACUCUAAGCAUUGACAGUUGCUACAGGUAGAAGGCACAUGAGGAUCACCCAUGUCCCGG [EX4 C.13] (Eterna round: R97, puzzle: Exclusion 4)	66	–	295	–	–	–
CCCGUGUUAGGAUAUACGGCACACCCACCAGCGGGUGUAUAGUAGAAGGAACAUGAGGAUCACCCAUGUAUAAC [Inardiza] (puzzle: Exclusion 4)	–	–	–	32.4	–	–
CCCUCACAUGAGGAUCACCCAUGUAAGGAUAUCUUCGCUUUGACGUUGUUGAAUGCGAAGAGAAGGUGCACGGC [jl-ex1-4.71 ViennaUCT mod] (Eterna round: R97, puzzle: Exclusion 1)	43	–	20.9	–	–	–
CCCUUUCAGGCAGGAUAUGUUCAUUUGUGAAUGGUGCCUACCUCACAUGAGGAUCACCCAUGUGGACAGAAGGGCCGGUGAAAA [Eternabot solution 26] (Eterna round: R96, puzzle: Exclusion NG 2)	120	25.5	25.7	–	–	–
CCGAAACAUGAGGAUCACCCAUGUGAGGAUAUGAGCGUCUAGUUGAGAGAUUGGACGCUCAGAAGGCACAUUGG [JR_Ex1_Sub075] (Eterna round: R97, puzzle: Exclusion 1)	76.7	–	121	–	–	–
CCGAACUCAGGAUAUGCAUGUAUAACAGAGAGAUCCACUAAACAUGAGGAUCACCCAUGUAGAAGGGAGUCGGG [Eternabot (L1) Solution 14] (Eterna round: R97, puzzle: Exclusion 2)	887	–	365	–	–	–
CCGAAUAAGCAGGAUAUCGUUUCGGAAACGAAACGAGAAGGGCUAACAUGAGGAUCACCCAUGUUCCUUAACGG [Mat - Exclusion 6 - Eli Mod - D77] (puzzle: Exclusion 6)	–	–	–	18.3	23.9	18
CCGAGGUAGCGGUCCUAUGACAUGAGGAUCACCCAUGUACCUCGCUACGAGCUUUUUGCUCGUCUUAAAAUUCUCGG [Mat - Sensor v3 - turn-off var 1 - JL Mod - D29] (puzzle: Sensor v3, turn-off variant 1)	–	–	–	156	47	54
CCGCAAAAUGAGGAUAUCGUAUCGGAUACGAUACGAGAAGGCGUAACAUGAGGAUCACCCAUGUGUCCUAGCGG [Fiskers Ex 6 - 35] (puzzle: Exclusion 6)	–	–	–	13.5	–	–
CCGCAACAUGAGGAUCACCCAUGUCAGGAUAUCGUACGUUCGUCGAUAGACGAUCGUACGAGAAGGGUGUGCGG [Mat - Exclusion 1 - Eli Mod - D35] (Eterna round: R97, puzzle: Exclusion 1)	81.5	–	103	–	–	–
CCGCAUAAGCAGGAUAUCGUAUCGGAAACGAUACGAGAAGGGUUUACAUGAGGAUCACCCAUGUUCCUUAGCGG [Mat - Exclusion 6 - Eli Mod - D100] (puzzle: Exclusion 6)	–	–	–	31.5	49.9	32.6
CCGGAAAUACAGGAUAUAGGAGUCGAUAGACUCCUAGAAGGGUAUACAUGAGGAUCACCCAUGUUCCUUACCGG [Fiskers Ex 6 - 72] (puzzle: Exclusion 6)	–	–	–	36.9	–	–
CCGGAAAUACAGGAUAUCGUAUCGGAUACGAUACGAGAAGGGUAUACAUGAGGAUCACCCAUGUGUCCUACCGG [Fiskers Ex 6 - 51] (Eterna round: R96, puzzle: Exclusion 6)	30.1	20.2	26.3	–	–	–
CCGGAAAUACAGGAUAUCGUAUCGGAUACGAUACGAGAAGGGUAUACAUGAGGAUCACCCAUGUGUCCUACCGG [Fiskers Ex 6 - 51] (puzzle: Exclusion 6)	–	–	–	23.6	–	–
CCGGAAUAACAGGAUAUAGGAGUCGAUAGACACCUAGAAGGGUUGACAUGAGGAUCACCCAUGUGUCCUACCGG [Fiskers Ex 6 - 81] (puzzle: Exclusion 6)	–	–	–	728	756	595
CCGGGUCACGUAAGGAUAUCACGCGCAGACGCUAGUGAGAAGGUACAUGAGGAUCACCCAUGUUCCAUUCGCAG [BmEX4 C.5] (Eterna round: R97, puzzle: Brourd's mod of Exclusion 4)	17.1	–	13.8	–	–	–
